This series can be described thus: label from the status in PepcDB records.
In the case of “MDFAYSPKVQELRERVSAFMEAHVYPAEAVFERQVAEGDRWQPTAIMEELKAKAKAEGLWNLFLPESEYGAGLANHEYAPLAEIMGRSLIGPEPFNCAAPDTGNMEVLVRYGSEEQKRTWLEPLLSGEIRSAFAMTEPGVASSDATNMEARAERQGDDWVINGRKWWTSGACDPRCKILIFMGLTNPDAPRHQQHSMILVPVDTPGVKILRPLPVFGYDDAPHGHAEVLFENVRVPYENVILGEGRGFEIAQGRLGPGRIHHCMRSIGMAERALELMCKRAVSRTAFGKPLARLGGNIDHIADSRMEINMARLLTLQAAYMMDTVGNKIAQSEIAQIKVVAPNVALKVIDRAIQMHGGAGVSNDFPLAYWYAMQRTLRLADGPDEVHRAAIGKFELGKYVPREML”, the protein production result is listed as “failed”.

“TPVRIESFDNSNIMGTSPVSAMVVFVNGKPSKKDYRKYKIKTVVGPDDYASMREVIRRRYGRVQREALTPPDLIVIDGGQGQVNIAKQVIQEELGLDIPIAGLQKNDKHQTHELLFGDPLEVVDLSRNSQEFFLLQRIQDEVHRFAITFHRQLRSKNSFSSQLDGIDG”: the protein production entry is on record as “failed”.

Regarding “MPSSAFPDTRMTLACRRMAGGASALPSFRMGAGLAFQPGLENAMSTVQDYIVADIGLADYGRKELDIAETEMPGLMSCRSELGETKPLKGARISGSLHMTIQTAVLIETLTALGAEVRWASCNIFSTQDHAAAAIAASGVPVFAVKGESLTEYWDYTDRIFQWTDGGQSNMILDDGGDATMYILLGARAEAGENVLVNPSSEEEEILFAQIKKRMAATPGFFTKQRDAIKGVTEETTTGVNRLYQLSQKGLLPFPAINVNDSVTKSKFDNKYGCKESLVDGIRRATDVMMAGKVAVVCGYGDVGKGCAASLIGAGARVKVTEVDPICALQAAMDGFEVVRLEDVVKTADIFITTTGNKDVIRIEHMREMKDMAIVGNIGHFDNEIQVVALKNLKWVNIKPQVDMIEFPAGNRMILLSEGRLLNLGNATGHPSFVMSASFTNQVLAQIELFTKPDAYKNQVYVLPKHLDEKVARLHLEKLGVRLTELSDEQASYIGVTPSGPFKADHYRY”, the protein production result is “failed”.

As for “MSLGVTMHDVAKAAGVSAITVSRVLNQPQQVSEQLREKVMQAVDALAYVPSRSASTLASAKSRTVLVLIPSLANTVFLETLTGIETVLDAAGYQMLIGNSHYDAGQELQLLRAYLQHRPDGVLITGLSHAEPFERILSQHALPVVYMMDLADDGRCCVGFSQEDAGAAITRHLLSRGKRRIGFLGAQLDERVMKRLDGYRAALDAADCRDAGLEWLDPQPSSMQMGADMLDRALAERPDCDALFCCNDDLAIGALARSQQLGIAVPERLAIAGFNDLQPAAWCTPPLTTVATPRRDIGVHAAKALLQLIDGEEPASRRADLGFRLMLRRSSEGHHHHHH”, the protein production result is recorded as “not failed”.

With “SSSQDVLIHSDDPCHPANLICTLCKQFFHNNWCTGTGGGISIKDPNTNYYYLAPSGVQKEKMIPEDLFVMDAQTLEYLRSPKLYKPSACTPLFLACYQKKNAGAIIHTHSQNAVICSLLFGDEFRIANIEQIKAIPSGKVDPVTKKPMALSFFDTLKIPIIENMAHEDELIDDLHKTFKDYPDTCAVIVRRHGIFVWGPTIDKAKIFNEAIDYLMELAIKMYQMGIPPDCGIGEEKKHLKMASP”, the protein production result is listed as “not failed”.

In the case of “RNPLFTCVISSIETTLSIPISGVHRDVIKYTPSADVELVFYGKSLTLKTPPIDATGSPTPATITRACVELKNIKNLHIDAGAFVKPKIPFIEIDEKPTGRIEEGKAMNNSKELYMKGYLLGKNLDAELLIVGESVPGGTTTALGVLLGLGYDAEGKVSSGSINNPHELKIKVVREGLKKAGINEKSSVFDVLNAVGDKMMPVVAGLAISFAERNKPVILAGGTQMSAVLAVIKEINKKVLDKNLIAIGTTEFVLNDKKGDLKGIVEQIGNVPVLASKFYFEKAKIEGLKNYCKGSVKEGVGAGGIAVYSIVNDL”, the protein production entry is “failed”.

With “MDRRLKKCSTSTDVESVHDVSKVTDPLQKAKRELDNVEIKEKQKKQKNQNETSEKETKKFSTVYEKFNDTIKELDRVSGTCPIRPAIPFTPPKEKVEPIYHNECNFDDKAHLGVSDSALFVQGFDTSHPRHEIKTALWNHFSSCGKVYLIYVPIACSTGASVGYAFIDMKNETKGLTLNGSHLGGRKIDVMFAIDREEFYFSSNLKHCQRCRNYRPWLVLKAMSDACFEYHQRIKPRIVGTPHSKIGRFTAIIGRRSYS”, the protein production entry is reported as “failed”.

Consider “MTSTFNPRECKLSKQEGQNYGFFLRIEKDTEGHLVRVVEKCSPAEKAGLQDGDRVLRINGVFVDKEEHMQVVDLVRKSGNSVTLLVLDGDSYEKAVKTRVDLKELGQSQKEQGLSDNILSPVMNGGVQTWTQPRLCYLVKEGGSYGFSLKTVQGKKGVYMTDITPQGVAMRAGVLADDHLIEVNGENVEDASHEEVVEKVKKSGSRVMFLLVDKETDKRHVEQKIQFKRETASLKLLPHQPRIVEMKKGSNGYGFYLRAGSEQKGQIIKDIDSGSPAEEAGLKNNDLVVAVNGESVETLDHDSVVEMIRKGGDQTSLLVVDKETDNMYRLAHFSPFLYYQSQELPNGSVKEAPAPTPTSLEVSSPPDTTEEVDHKPKLCRLAKGENGYGFHLNAIRGLPGSFIKEVQKGGPADLAGLEDEDVIIEVNGVNVLDEPYEKVVDRIQSSGKNVTLLVCGKKAYDYFQAKKIPIVSSLADPLDTPPDSKEGIVVESNHDSHMAKERAHSTASHSSSNSEDTEM”, for which the protein production entry is listed as “failed”.

For the sequence “SPNPPKLTKQMNAIIDTVINYKDSSGRQLSEVFIQLPSRKELPEYYELIRKPVDFKKIKERIRNHKYRSLGDLEKDVMLLCHNAQTFNLEGSQIYEDSIVLQSVFKSARQ”, the protein production entry is “not failed”.

For “MESADSGRSDPVKGDDPGPSFVSSPPATPSRYESQKRRDWNTFLQYLKNHKPPLALSRCSGAHVIEFLKYLDQFGKTKVHVAACPYFGHQQPPSPCSCPLKQAWGSLDALIGRLRAAYEENGGRPDSNPFAARAVRIYLREVRESQAKARGIPYEKKKRKRPPTVTTVRVDVASSRQSDGDPCNVGAPSVAEAVPP”, the protein production result was “failed”.

In the case of “MPSLLETKGPKITLGLDLRGGLNMLLGVQTDEALKNKYLSLASALEYNAKKQNILLKDIKSNLEGISFELLDEDEAKKLDALLLELQGHSQFEIKKEAGFYSVNLTPLEQEELRKNTILQVIGIIRNRLDQFGLAEPVVIQQGKEEISVQLPGIKTLEEERRAKDLISRSAHLQMMAVDEEHNKDAMKMTDLEAQKLGSVLLSDVEMGGKILLKAIPILDGEMLTDAKVVYDQNNQPVVSFTLDAQGAKIFGDFSGANVGKRMAIVLDNKVYSAPVIRERIGGGSGQISGNFSVAQASDLAIALRSGAMSAPIQVLEKRIIGPSLGKDSVKTSIIALVGGFILVMGFMVLYYSMAGVIACLALVVNLFLIVAVMAIFGATLTLPGMAGIVLTVGIAVDANIIINERIREVLRENEGIAKAIHLGYINASRAIFDSNITSLIASVLLYAYGTGAIKGFALTTGIGILASIITAIVGTQGIYQALLPKLTQTKSLYFWFGVNKRA”, the protein production result is “failed”.

Turning to “MTTHQVKKSEAKRQHILDSGFHLVLRKGFVGVGLQEILKTSGVPKGSFYHYFESKEAFGCELLKHYISDYQIRLNQLWTTETSARDKLMNYLQCWVKDPATEQSWAESCLIVKMAAEVADLSEDMRLIMNDGVKRLIARMADLIRIGQQEGSIQTSVVPDVLAQVIYQMYLGAALLSKLYKHKAPLFQALESTKMMLDGCNHVQQDKNQ”, the protein production entry was “not failed”.

For “MEQSLGSKQNLGSKQNQITKPHKLVLDNRKRTNLTGIEDVVEFDTTQIVLESSMGMLVIKGADLKITRLSIEKGEADIDGSVNSVIYSQIKNYGEKGKSVLKRMFS”, the protein production result is “failed”.

Turning to “MAPLLMILAAQLLIASGNLLVKLLETNTPVFQLVLYRQLFATLLVLPFVWHLQGNLKLSPFYKVHLSRALLIGLGNAIFMLAVLHLPLATVTAVIYSSPLILLLLSAFFLNERIGYRRSVAGLIGFTGILLISQPTEVNLYIGLAFFGAMISAINSLILKAYSTHEHPFSTLFWSNAFAMVFLIPATWYEGANFSLPVAQVGLTLGVFYVGMTYLIIHAYRRADASQMAPVEYTGLIFAALLGWWFLDETLSVVVCIGIGLVIFSSLLPSYGELKAKWKSRRR”, the protein production result was “failed”.

“MIMSKESIIFVGLFTVILSAVILMLSYTSSGQELNQYVKIEVQQGDTLWSIADQVADTKKINKNDFIEWVADKNQLQTSDIQPGDELVIPLKKKHQDAYELATVR”: the protein production entry is recorded as “failed”.

Take “MRRGLVIVGHGSQLNHYREVMELHRKRIEESGAFDEVKIAFAARKRRPMPDEAIREMNCDIIYVVPLFISYGLHVTEDLPDLLGFPRGRGIKEGEFEGKKVVICEPIGEDYFVTYAILNSVFRIGRDGKGEE”: the protein production entry is “not failed”.

“IQVFVKNPDGGSYAYAINPNSFILGLKQQIEDQQGLPKKQQQLEFQGQVLQDWLGLGIYGIQDSDTLILSKKKG”: the protein production result is given as “not failed”.

Consider “MGRVKLELKRIEKSTNRQITFSKRKKGLIKKAYELSTLCDIDLALLMFSPSDRLCLFSGQTRIEDVLARYINLPDQERENAIVFPDQSKRQGIQNKEYLLRTLEKLKIEDDMALQINEPRFIPH”, for which the protein production entry is recorded as “failed”.

As to “MLIQDLSHKNIKDYTSIYGEEYINRIVEKAEKLRDITLTHVNSTSLGGGVAEILYSLVPLMNSIGITTRWEVIKGGNEFFNVTKKIHNALQGAEIDLSDEEKRIYLENNKWNVENELVLDSTHIVVHDPQPLPIRKFAENNKKWIWRCHIDLSTPYKPVWLFISQLLRGYEASIFHLKEYIHPETPTPIKYVMPPSIDPLSDKNKELSWSTIEKILNRYGIDPEKPILLQVARFDPWKDPFAAIDVYRLVKKEFPDTQLLLVTSMATDDPEGWIYYEKTLKYAGMDEDIFILTNLKNVGTLEVNAFQRAATVVLQMSRREGFGLAVTEALWKRKPVVARPRGGIKLQVIDGVTGHLAETVEEAAKKTIYLIKNPQKRKELGENGYKHVLKHFTIVRHIENYLDLLAKIV”, the protein production result is “failed”.

Turning to “MSYMGKKKKDCLFHVDGFEEWMDQFCSDSCSNFSFPNQIHIDLCETEQEYILETDVPNVTEQNVVIKKMETGLNICILHKNISLQRNIPLPTTIIYKKMLACLENGFLAIHISKNEVANKHEEKVLFQIEN”, the protein production entry is given as “failed”.

Turning to “MHMQVIQLHHPYEPNQIPNEEVVMVLGFFDGVHKGHQKVIETGKKIAEEKGLKLAVMTFNQHPSIVFQKVLPENMKYLTSLEQKERLMANLGVDILYIVEFTSAFAQLKPQDFVDQYIVNLNSAVAVSGFDYTYGPKEIAGVKQLPTYAQGRFEVVTVPKEEMTGAKISSTRIREKMEAGEMEEVTELLGYIYETEGTVVHGDARGRLLGFPTANVKVKSTVRLPRIGVYAVQIEVGGKWYVGMGSIGHNDTFGEGRDLTVEVYILDFHQDIYGEQVVVRWNHYLRDQVKFNGAEALIDQLKQDERDTADYFQQSEDK”, the protein production result is listed as “failed”.

With “PAMICRYRPDLTLTFGNRPLAAYLECAPEELPGSNLGQWLSAEQREGFERRLKLLSPEYPVSTAEINLQLPGREHAWWVWSDRGVFDEQGQLLEIQAVGRDNTEVRRAQQQLTQSAKMATLGEMATGLAHEINQPLNVMRMAIVNVLKRLGNG”, the protein production entry is “failed”.

“MQDKNFDKLAQKFAKNIYGTPKGEIRAAVLWRDLAPALAQFGDKKLRILDAGGGFGYFSQKLARLGHEVVLCDISAEMLAQAKEQIDASDTPLAIRLVHAPIQALSITEHGMFDLILCHAVVEWLADAKTTMEGLLTMLKPNGLFSLMFYNKEAMRFHALVSGNFDYVAADLKVKKKVRLTPTHPLYIHEVKLWFAQWQMALLKESGVRVIHDYLKKQQAADFDYQKLLSMELEYSQREPYISLGRYVHFLGLEHHHHHH”: the protein production result is reported as “failed”.
